In US20240141027A1 (BIOARCTIC, published 2024):

What was measured:
[1] = molecular target: T1, recombinant murine transferrin receptor 1 (mTfR1), extracellular domain fused to a His-tag (murine, UniProt Q62351 89-763); experiment: BLI (Octet), mTfR1 captured on holo-transferrin sensors, analyte 50 nM
T1 construct: Position of the His-tag (N or C) unknown; also called recombinant mTfR1; murine TfR1; not shown: His-tag

[2] = molecular target: T2, recombinant Aβ1-42; experiment: indirect ELISA, plates coated with recombinant Aβ1-42
T2 construct: Coated at 0.5 µg/ml on ELISA plates; also called Amyloid Beta (Aβ1-42)

[3] = molecular target: T1, recombinant murine transferrin receptor …; experiment: BLI (Octet), mTfR1 captured on biotinylated human holo-transferrin on streptavidin sensors
Protocol: Binding of expressed constructs to mTfR1 was assessed by Bio-Layer Interferometry (Octet RED384, ForteBio). High-precision streptavidin sensors were loaded in two consecutive steps: first with 20 μg/ml of biotinylated human holo-transferrin (Sigma) during 180 s and then with 20 μg/ml recombinant mTfR1, produced as described in Example 4, during 180 s. Thereafter, association of the samples to the loaded sensors was measured for 120 s, followed by dissociation for 300 s. Binding was analyzed with samples diluted to 17.5 μg/ml for mAb158-scLc-8D3-Ig.1 and mAb158-scLc-8D3-Ig.2, to 18 μg/ml for mAb158-scLc-8D3-Ig.3 and to 4.9 μg/ml for 8D3 Fab (corresponding to 100 nM of respective binding molecule). The response from a buffer sample was subtracted. All samples were diluted in 1× Kinetics buffer (ForteBio). The same buffer was used for baseline and dissociation steps. […] As controls, the 8D3 Fab and the antibody mAb158 IgG were included.

[4] = molecular target: T1, recombinant murine transferrin receptor …; experiment: indirect ELISA, plates coated with recombinant mTfR1
Protocol: Binding of selected expressed constructs to mTfR1 was assessed by indirect ELISA (FIG. 4). In brief, half area 96-well plates (Corning, #3690) were coated with 1 μg/ml recombinant mTfR1, produced as described in Example 4, in PBS overnight at 4° C. The coated plates were blocked using Pierce protein-free blocking solution (Thermo Fisher Scientific, #37572) for 1 h at room temperature with shaking and washed four times in PBS containing 0.1% TWEEN-20. Serial dilutions (1:3) of expressed constructs in incubation buffer (1% BSA, 0.1% TWEEN-20 in PBS) were incubated for 1 h at room temperature. Following the four wash steps, bound test constructs were detected by addition of anti-mouse-IgG F(ab′)2-HRP antibody (Jackson Immuno Research, #115-035-006) at 1:1250 dilution in incubation buffer (1 h, room temperature). Following four wash steps, K-Blue® Aqueous TMB substrate (Neogen, #331177) was added to the wells for 15 min at room temperature before the reaction was stopped with 1:1 dilution of 0.5 M H₂SO₄. The optical density at 450 nm was recorded (Spark, Tecan) and background signal was subtracted before analysis.

[5] = molecular target: T3, mTfR1 expressed on cell surfaces of Immortalized Mouse Cerebral Capillary Endothelial Cells (cEND) (mouse, UniProt Q62351 1-763); experiment: flow cytometry on cEND cells, 100 nM, 4° C., anti-mouse IgG-PE
T3 construct: whole, on cells; also called mTfR1 on cEND cells
Protocol: Binding and uptake mediated by TfR1 was measured on Immortalized Mouse Cerebral Capillary Endothelial Cells (cEND) (ABM, #T0290).
The pellet was resuspended in PBS and 200,000 cells per well were seeded in U-bottom 96-well Corning plates for flow cytometry staining. Cells were then washed with PBS and incubated with 100 nM of one of the mAb158-8D3 constructs mAb158-scLc-8D3-Ig.1, mAb158-scLc-8D3-Ig.2 and mAb158-scLc-8D3-Ig.3, control 8D3 IgG (light chain of SEQ ID NO:17, heavy chain of SEQ ID NO:19) or murine IgG control for 45 min at 4° C. After primary incubation, cells were washed twice with ice cold PBS, and mAb158-8D3 constructs were captured using a fluorescently labeled secondary anti-mouse IgG-PE antibody (BD Biosciences, 550589). After incubation, cells were washed twice with PBS and resuspended in 200 μl PBS. Cells were acquired in a BD FACSLyric flow cytometer system (BD Biosciences) and samples were analyzed using FCS Express software (De Novo Software).

T1 sequence (Q62351 89-763): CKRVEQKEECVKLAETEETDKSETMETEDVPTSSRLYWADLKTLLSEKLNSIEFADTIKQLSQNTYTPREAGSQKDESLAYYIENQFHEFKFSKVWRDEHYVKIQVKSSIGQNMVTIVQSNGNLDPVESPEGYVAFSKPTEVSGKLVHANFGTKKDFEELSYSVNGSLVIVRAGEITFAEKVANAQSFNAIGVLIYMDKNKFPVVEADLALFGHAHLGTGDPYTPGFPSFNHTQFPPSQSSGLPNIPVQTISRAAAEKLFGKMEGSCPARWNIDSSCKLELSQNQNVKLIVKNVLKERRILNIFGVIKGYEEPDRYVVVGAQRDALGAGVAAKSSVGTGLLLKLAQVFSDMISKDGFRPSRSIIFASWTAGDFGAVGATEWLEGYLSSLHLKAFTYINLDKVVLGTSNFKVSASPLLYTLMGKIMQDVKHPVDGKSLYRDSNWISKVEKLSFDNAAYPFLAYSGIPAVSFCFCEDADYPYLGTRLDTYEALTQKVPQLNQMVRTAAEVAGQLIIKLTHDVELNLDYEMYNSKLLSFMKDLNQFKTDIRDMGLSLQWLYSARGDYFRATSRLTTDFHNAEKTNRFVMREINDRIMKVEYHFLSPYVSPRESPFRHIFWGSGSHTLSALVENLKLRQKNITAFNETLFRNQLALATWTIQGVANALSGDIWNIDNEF
T2 sequence (peptide, as listed by the source): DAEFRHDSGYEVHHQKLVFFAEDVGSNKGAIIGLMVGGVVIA
T3 sequence (Q62351 whole entry): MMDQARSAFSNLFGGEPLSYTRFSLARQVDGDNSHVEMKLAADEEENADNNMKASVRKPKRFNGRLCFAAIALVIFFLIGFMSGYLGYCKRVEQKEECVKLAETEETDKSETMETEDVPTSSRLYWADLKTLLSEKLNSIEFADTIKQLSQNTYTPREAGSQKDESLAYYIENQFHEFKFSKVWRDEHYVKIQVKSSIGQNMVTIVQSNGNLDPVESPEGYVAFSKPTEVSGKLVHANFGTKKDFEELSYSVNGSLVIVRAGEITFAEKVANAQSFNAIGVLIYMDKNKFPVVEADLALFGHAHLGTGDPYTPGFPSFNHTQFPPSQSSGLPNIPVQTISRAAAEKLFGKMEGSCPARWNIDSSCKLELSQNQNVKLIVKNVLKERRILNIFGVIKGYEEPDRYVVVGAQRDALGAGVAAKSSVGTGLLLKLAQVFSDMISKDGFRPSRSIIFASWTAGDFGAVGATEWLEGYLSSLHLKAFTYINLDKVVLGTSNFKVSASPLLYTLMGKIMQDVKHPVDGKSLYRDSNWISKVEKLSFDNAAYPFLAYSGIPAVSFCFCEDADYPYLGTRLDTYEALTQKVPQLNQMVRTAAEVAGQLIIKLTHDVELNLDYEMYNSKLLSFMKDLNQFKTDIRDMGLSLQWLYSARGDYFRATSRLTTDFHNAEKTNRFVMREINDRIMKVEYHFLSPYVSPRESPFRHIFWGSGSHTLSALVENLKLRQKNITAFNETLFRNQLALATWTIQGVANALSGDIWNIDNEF

binding result [3]	Binder	further results
–	mAb158-scLc-8D3-Ig.15 (bispecific antibody, human IgG1, kappa, Format [LC-L1-scBM-L2-LC]; also called mAb158-scLc-Ig.15) heavy: not shown DIVMTQAPLSLPVSLGDQASISCRSSQSIVHSNGNTYLEWYLQKPGQSPKLLIYKVSNRFSGVPDRFSGSGSGTDFTLKISRVEAEDLGIYYCFQGSHVPPTFGGGTKLEIKRADAAPTVSIFPPSSEQLTSGGASVVCFLNNFYPKDINVKWKIDGSERQNGVLNSWTDQDSKDSTYSMSSTLTLTKDEYERHNSYTCEATHKTSTSPIVKSFNRNECGGGGSGGGGSGGGGSGGGGSGGGGSDIQMTQSPASLSASLEEIVTITCQASQDIGNWLAWYQQKPGKSPQLLIYGATSLADGVPSRFSGSRSGTQFSLKISRVQVEDIGIYYCLQAYNTPWTFGGGTKLELKRGGGGSGGGGSGGGGSEVQLVESGGGLVQPGNSLTLSCVASGFTFSNYGMHWIRQAPKKGLEWIAMIYYDSSKMNYADTVKGRFTISRDNSKNTLYLEMNSLRSEDTAMYYCAVPTSHYVVDVWGQGVSVTVSSGGGGSGGGGSGGGGSGGGGSDIVMTQAPLSLPVSLGDQASISCRSSQSIVHSNGNTYLEWYLQKPGQSPKLLIYKVSNRFSGVPDRFSGSGSGTDFTLKISRVEAEDLGIYYCFQGSHVPPTFGGGTKLEIKRADAAPTVSIFPPSSEQLTSGGASVVCFLNNFYPKDINVKWKIDGSERQNGVLNSWTDQDSKDSTYSMSSTLTLTKDEYERHNSYTCEATHKTSTSPIVKSFNRNEC	binding result [1]: binds; binding result [2]: binds
binds	mAb158-scLc-8D3-Ig.4 (bispecific antibody, human IgG1, kappa, Format [LC-L1-LC-L2-scBM]) heavy: not shown DIVMTQAPLSLPVSLGDQASISCRSSQSIVHSNGNTYLEWYLQKPGQSPKLLIYKVSNRFSGVPDRFSGSGSGTDFTLKISRVEAEDLGIYYCFQGSHVPPTFGGGTKLEIKRADAAPTVSIFPPSSEQLTSGGASVVCFLNNFYPKDINVKWKIDGSERQNGVLNSWTDQDSKDSTYSMSSTLTLTKDEYERHNSYTCEATHKTSTSPIVKSFNRNECGGGGSGGGGSGGGGSGGGGSGGGGSGGGGSDIVMTQAPLSLPVSLGDQASISCRSSQSIVHSNGNTYLEWYLQKPGQSPKLLIYKVSNRFSGVPDRFSGSGSGTDFTLKISRVEAEDLGIYYCFQGSHVPPTFGGGTKLEIKRADAAPTVSIFPPSSEQLTSGGASVVCFLNNFYPKDINVKWKIDGSERQNGVLNSWTDQDSKDSTYSMSSTLTLTKDEYERHNSYTCEATHKTSTSPIVKSFNRNECGGGGSGGGGSGGGGSEVQLVESGGGLVQPGNSLTLSCVASGFTFSNYGMHWIRQAPKKGLEWIAMIYYDSSKMNYADTVKGRFTISRDNSKNTLYLEMNSLRSEDTAMYYCAVPTSHYVVDVWGQGVSVTVSSGGGGSGGGGSGGGGSDIQMTQSPASLSASLEEIVTITCQASQDIGNWLAWYQQKPGKSPQLLIYGATSLADGVPSRFSGSRSGTQFSLKISRVQVEDIGIYYCLQAYNTPWTFGGGTKLELKR	–
binds	mAb158-scLc-8D3-Ig.5 (bispecific antibody, human IgG1, kappa, Format [LC-L1-LC-L2-scBM]) heavy: not shown DIVMTQAPLSLPVSLGDQASISCRSSQSIVHSNGNTYLEWYLQKPGQSPKLLIYKVSNRFSGVPDRFSGSGSGTDFTLKISRVEAEDLGIYYCFQGSHVPPTFGGGTKLEIKRADAAPTVSIFPPSSEQLTSGGASVVCFLNNFYPKDINVKWKIDGSERQNGVLNSWTDQDSKDSTYSMSSTLTLTKDEYERHNSYTCEATHKTSTSPIVKSFNRNECGGGGSGGGGSGGGGSGGGGSGGGGSGGGGSGGGGSGGGGSGGGGSGGGGSDIVMTQAPLSLPVSLGDQASISCRSSQSIVHSNGNTYLEWYLQKPGQSPKLLIYKVSNRFSGVPDRFSGSGSGTDFTLKISRVEAEDLGIYYCFQGSHVPPTFGGGTKLEIKRADAAPTVSIFPPSSEQLTSGGASVVCFLNNFYPKDINVKWKIDGSERQNGVLNSWTDQDSKDSTYSMSSTLTLTKDEYERHNSYTCEATHKTSTSPIVKSFNRNECGGGGSGGGGSGGGGSEVQLVESGGGLVQPGNSLTLSCVASGFTFSNYGMHWIRQAPKKGLEWIAMIYYDSSKMNYADTVKGRFTISRDNSKNTLYLEMNSLRSEDTAMYYCAVPTSHYVVDVWGQGVSVTVSSGGGGSGGGGSGGGGSDIQMTQSPASLSASLEEIVTITCQASQDIGNWLAWYQQKPGKSPQLLIYGATSLADGVPSRFSGSRSGTQFSLKISRVQVEDIGIYYCLQAYNTPWTFGGGTKLELKR	–
no binding (tested: 50 nM)	mAb158 IgG (antibody, V domains shown, also called unmodified mAb158 IgG control; unmodified mAb158 control) VH: EVKLMESGGGLVQPGGSRKLSCAASGFTFSSFGMHWVRQAPEKGLEWVAYISSGSSTIYYGDTVKGRFTISRDNPKNTLFLQMTSLRSEDTAMYYCAREGGYYYGRSYYTMDYWGQGTSVTVSS VL: DIVMTQAPLSLPVSLGDQASISCRSSQSIVHSNGNTYLEWYLQKPGQSPKLLIYKVSNRFSGVPDRFSGSGSGTDFTLKISRVEAEDLGIYYCFQGSHVPPTFGGGTKLEIKR	–
–	mAb158-scLc-8D3-Ig.1 (bispecific antibody, human IgG1, kappa) heavy: not shown DIVMTQAPLSLPVSLGDQASISCRSSQSIVHSNGNTYLEWYLQKPGQSPKLLIYKVSNRFSGVPDRFSGSGSGTDFTLKISRVEAEDLGIYYCFQGSHVPPTFGGGTKLEIKRADAAPTVSIFPPSSEQLTSGGASVVCFLNNFYPKDINVKWKIDGSERQNGVLNSWTDQDSKDSTYSMSSTLTLTKDEYERHNSYTCEATHKTSTSPIVKSFNRNECGGGGSGGGGSGGGGSEVQLVESGGGLVQPGNSLTLSCVASGFTFSNYGMHWIRQAPKKGLEWIAMIYYDSSKMNYADTVKGRFTISRDNSKNTLYLEMNSLRSEDTAMYYCAVPTSHYVVDVWGQGVSVTVSSGGGGSGGGGSGGGGSDIQMTQSPASLSASLEEIVTITCQASQDIGNWLAWYQQKPGKSPQLLIYGATSLADGVPSRFSGSRSGTQFSLKISRVQVEDIGIYYCLQAYNTPWTFGGGTKLELKRGGSSGSGSGSTGTSSSGTGTSAGTTGTSASTSGSGSDIVMTQAPLSLPVSLGDQASISCRSSQSIVHSNGNTYLEWYLQKPGQSPKLLIYKVSNRFSGVPDRFSGSGSGTDFTLKISRVEAEDLGIYYCFQGSHVPPTFGGGTKLEIKRADAAPTVSIFPPSSEQLTSGGASVVCFLNNFYPKDINVKWKIDGSERQNGVLNSWTDQDSKDSTYSMSSTLTLTKDEYERHNSYTCEATHKTSTSPIVKSFNRNEC	binding result [4]: binds; binding result [5]: binds
no binding	mAb158-scLc-Ig.6 (antibody, human IgG1, kappa) heavy: not shown DIVMTQAPLSLPVSLGDQASISCRSSQSIVHSNGNTYLEWYLQKPGQSPKLLIYKVSNRFSGVPDRFSGSGSGTDFTLKISRVEAEDLGIYYCFQGSHVPPTFGGGTKLEIKRADAAPTVSIFPPSSEQLTSGGASVVCFLNNFYPKDINVKWKIDGSERQNGVLNSWTDQDSKDSTYSMSSTLTLTKDEYERHNSYTCEATHKTSTSPIVKSFNRNECGGGGSGGGGSGGGGSGGGGSGGGGSGGGGSGGGGSGGGGSGGGGSGGGGSDIVMTQAPLSLPVSLGDQASISCRSSQSIVHSNGNTYLEWYLQKPGQSPKLLIYKVSNRFSGVPDRFSGSGSGTDFTLKISRVEAEDLGIYYCFQGSHVPPTFGGGTKLEIKRADAAPTVSIFPPSSEQLTSGGASVVCFLNNFYPKDINVKWKIDGSERQNGVLNSWTDQDSKDSTYSMSSTLTLTKDEYERHNSYTCEATHKTSTSPIVKSFNRNEC	–
